Laboratory results reported in the supplement of paper PMC9170038.

Assays:
MS2 coat protein [1] = test: apparent KD of MS2 coat protein; designed switch direction (-1 OFF switch, 1 ON switch): 1; higher = weaker reporter binding; details: Eterna round: R98
Description: (§1)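 RNA-MaP: designed FMN/MS2 RNA switches (84 nt design region) are transcribed on-chip within common flanks and titrated with SNAP-549-labelled MS2 coat protein (about 1-3000 nM) in 100 mM Tris pH 7.5, 80 mM KCl, 4 mM MgCl2, without or with 200 uM FMN. Median apparent KD per design; activation ratio = KD,OFF / KD,ON.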

MS2 coat protein [2] = test: apparent KD of MS2 coat protein; designed switch direction (-1 OFF switch, 1 ON switch): -1; higher = weaker reporter binding; details: Eterna round: R98
Description: as §1

| Sequence | apparent KD of MS2 coat protein (MS2 coat protein [1]; input ligand: FMN 200 uM) [nM] | apparent KD of MS2 coat protein (MS2 coat protein [1]; input ligand: none) [nM] | apparent KD of MS2 coat protein (MS2 coat protein [2]; input ligand: FMN 200 uM) [nM] | apparent KD of MS2 coat protein (MS2 coat protein [2]; input ligand: none) [nM] |
| --- | --- | --- | --- | --- |
| GGACUCACUUGAGGAUAUCGAGUGGAUAACACUCGAGAAGGCAGGAAAACCUGAGGAUCACCCAGGUAAGAGUCCAAUAAUAAU [Same State NG1 - A3C, U17G Submission 3D] | 14.4 | 13.2 | – | – |
| CAUAUAUGGUGAGGAUAUGCAAAGGAUCACCUUGUAGAAGGCAUCAGGGUAGAAGGUGCAAGGAUCACCUGUAAGGAUAUAUCC [pwkr2 ssNG1 DX.26] | 412 | 1630 | – | – |
| AGCGGUGCGUGUGUUGUGACACAUGAGGAUCACCCAUGUAGGAAGGAUAUGCAGUUGGGCACGCGGCAGAAGGUCCGACAUGGA [Riuscein] | – | – | 58.6 | 529 |
| GUAGCAUACCGAGGAUAUUCAUAUAAUAAAUAAACAUGAGGACCACCCAUGUGGCGAAAGCCUUGGGAGAAGGCGGAAUGCUAC [Xeonanis 20 - mod55 1] | 70.9 | – | – | – |
| GAUUACUUCACAGGAUAUAAAAUAAAGCAGAUUUUAGAAGGGUGAGCCUCGUCGACCGCGACAUGAGGAUCACCCAUGUUGUGU [Bitetiqu] | 50.8 | 29.3 | – | – |
| AAGAUACUUACAGGAUAUAGGGCAGAGGGUGCCCUAGAAGGGUGAACAUGAGGAUCACCCAUGUAUGUAUCUGAUUAGAAGGCA [Lezaraoren] | 119 | 73.2 | – | – |
| GCGUGUGGAUCAGGAUAUUACAUGAGGAUCACCCAUGUAGGCAUGAGGGUCACCCGUGUUGUGUGUAAGAAGGGAUCGCCCGUG [Exclusion2] | – | – | 74.1 | 46 |
| GCUGCUAUCGCAGGAUAUUACAUGGGAAAGAAUACAUGAGGAUCACCCAUGUAAAAGAUCGUAAAUAAGAAGGGCGAUAGCAGC [Lame State 5 - Jieux - Same State NG 2] | 353 | 329 | – | – |
| GGACUCACUUGAGGAUAUCGAGUGGAAUACACUCGAGAAGGCAGGGAAACCUGAGGAUCACCCAGGUAAGAGUCCAAUAAUAAA [Same State NG1 - A3C, U17G Submission 2C] | 18.7 | 43.4 | – | – |
| AAAAUAAAGGCAGGAUAUACAUGAAUAAAUAAAAUAAUAUAAAAUAAAACAUGAGGAUCACCCAUGUAGAAGGGCCAAAAUAAA [LRO022_Exclusion NG 2] | – | – | 187 | 83.3 |
